# Laboratory results reported in the DeepSol protein solubility set.
# Experiment: soluble on expression in E. coli; label from the status in PepcDB or PDB records
row,Sequence,soluble on expression in E. coli
1,MVKSIENVKLTKGLFYNSQKKGNDVILALDIDRLLAPYYEAANLPPKKRSYGGWEEREIRGHSLGHWLSAAAAMYETTGDKALLERIDRAVQELATIQDDVGYVGGVKRAHFDEMFSGEFQVGHFNIAGTWVPWYNLHKLFAGLIDVHQLTGHSLALTVVTKLADWAKKGTDQLTDDQFQRMLICEHGGMNEAMADLYTLTGHKDYLQLAIRFCHWAVLEPLANGIDELEGKHANTQIPKVIGAAKLFEITGDDTYRAIAEFFWRQVTNDRSYIIGGNSNSEHFGPANKETLGVETAETCNTYNMLKLTEHLFRWNRSSQLMDYYEKALYNHILASQDPDSGMKTYFVSLQPGHFKVYSSLEESFWCCFGTGLENPARYTRTIYDRDDRHIYVNLFMASEIHLKDLQVQIRQETNFPETDRTKLTFVKADGVSIKLHIRVPEWVAGPVTARINGKETFSESGADYLTIEREWQKGDEIEVHLPMELRIYEAKDDSHKVGIMYGPIVLAGTFGKDHFPETDIVPNHLSLHNHPLIDVPTLVATKKTPDQWIHPVEGRSLTFRTAAIGQPGNVQITLIPFYALHHERYTVYWNLMSEVEYEAFKARKEVESDQLQARTVDAVQPGEQQPEVEHQLKANHSETGYLNIMQKRWRDSRGEDGFFSYVMKVKPNQQMSLFVTYYGGDHGLFVDGKWCDRSFRILIDDEVIKEEQLLGKNPGETLDVYYPIPLALTEGKEEVVVTFASKEGTVAGGVYGVRMLCNLEHHHHHH,soluble
2,MGSDKIHHHHHHMKFSLGPSLFFWPKNEVVDFYQQAKESSADVIYLGETVCSKRRELRAKDWLGLAQDVAQDTNKQVVVSTMTLLESPAEIQVLKRLCDNGEFLVEANDLSAVQIMHELKMPFVAGPAINCYNLSTLKVLLKQGMTRWLMPVELSGDWLKILLEQATEAGIRQQFECEVFSWGYLPLAYSARCFTARSEDKAKDDCEYCCIKYPEGRRMNSREGERVFVLNGIQTLSGYQYNLINEMPALDAMGVDIARISADSTEAFTQLDNFREQLVNPTRKELDGVTECNGFWHKIAGMSVA,not soluble
3,MGSDKIHHHHHHMWENFLFSVDRKETTMSMRLLARKMLFMRGASWQHPVIRLGLTALDPVDAIIRSATGLRSLPRYSTRVRSNGLSNQFGGGKFARQGRVILHMLQRHCALSPKSRVLEIGCGCGRTAVQLASFLEAEKYVGMDIEMVSLEACRDNPHLKRRGFKFDLIDIQNNEYNPKGRFRADEYRFSYLDGSMDCVFLISVFTHMLPEDVSNYVTEIGRMLDRGGMCLFSTFLIDHGRGGRGLNFAHDGNGFSYYDVRMPEIAVAYPQRFFEDSFGRAGLVLHEVKLGSWRDDGRGSYPEFGQDVLVFKKAA,not soluble
4,MKRVFVTVGTTSFDDLIARVVAHDSVQILKNLGYNQLVLQIGRGTVVPEPFSTESFTLDVYRYKDSLKEDLQQADLVISHAGAGSCLESLEKGKPLVVVVNEKLMNNHQFELAKQLHREGHLFYCTCSMLPELLQSMDLSTLKCYPPGQPEKFSAFLDKVVGLQK,soluble
5,MSATLPCGMHKCQRLCHKGECLVDEPCKQPCTTPRADCGHPCMAPCHTSSPCPVTACKAKVELQ,soluble
6,MSLEPVFQLRKELNVFASEEGGATEDISSYAATADSSGITEWNTSDKFTNEMTLTENAKYTVSQLAPNLSFLPEQATDLTGAVDYYSGNALCNDRENLYIWPFNSPQRRLACIRIPLHEEHEVLSGAPLCCFTWPSAGEESEQTKSAGVLIVHANSGLVQFYEDIHTINSVSTLISKSRVIQLDLRFRDREHATDVVNAEPSGILVATSFGRLLLLTIRDSSGKPCLKLRQQLIKSQVGFFSGAMNTFKDIVAIKPSLITGKGERLLLTITRGGELKIWNVSATMSSYKRVEVNVYQQILESLQELYPFAYGSLQILDLNPLPSDPYSLLVLSSISDGKETYYILTAIKVEESSFSIFSVYRLNTYTKANDKKPRLFIAGDLENGEQPIEPQNVPVYLLFEDAVVITQAFTQLDSNYPLRKKWEDLVSLKEDSMVLGHGNDEKALYLINGNRGVVKIEAKMEPSEDYRFVKSHIDQAVYFSEGHHHHHH,soluble
7,MSDKDDLIVAGVNQKDKGIWRDFYDRYYAALCSYVEKILFLTDAVEDLVQEVFISVWEGKRTFSDSRELTNYLYRACYNNALLYIRNHQIHDSILNGLPQEEDFEDEEMLYALTVKEEAIRQLYFYIEELPAEQRRIILLRIEGHSWDEIASRLGVSINTVKTQKSRSYKFLREKLANSSYSVLLALIFY,not soluble
8,MSLDALTTLPIKKHTALLNRFPETRFVTQLAKKRASWIVFGHYLTPAQFEDMDFFTNRFNAILDMWKVGRYEVALMDGELTSEHETILKALELDYARIQDVPDLTKPGLIVLDMDSTAIQIECIDEIAKLAGVGEEVAEVTERAMQGELDFEQSLRLRVSKLKDAPEQILSQVRETLPLMPELPELVATLHAFGWKVAIASGGFTYFSDYLKEQLSLDYAQSNTLEIVSGKLTGQVLGEVVSAQTKADILLTLAQQYDVEIHNTVAVGDGANDLVMMAAAGLGVAYHAKPKVEAKAQTAVRFAGLGGVVCILSAALVAQQKLSWKSKEGHHHHHH,soluble
9,GPGSMTTLVLCDGSEGSLRSIEVACAGNATPTSSMPSQEGSLLLLHVWDTPATRTSVLHPSVGAEGMYTPRRSVSSAAAAAAQTSADAGGHGGSSMPCADVLTTTLQYIHTNKYLKNKLHYTVETTCASTVFARDNTDHSVLSEAGAAPAGGTAASQAAHGRAGQGQKRASCSAGGAGSARRRSDRRPSQRQIDTAAEISAGSSNNTGDGTAPERQEAPVSIPENEKRAMAVVKYATARAAHHHVTAVLLGVGQRQDGKVCTVGAVAQGVLLELRSLYPLYYVKKDGVKWRPALSTTTTTTAATPRRFTIVVAVPADARWESATAAETRSGNEEAAAQTTASIETPSVAPPQVPIHVQEAVAATVQYVQTRCMRLHAALQVEQITFAVIATSSSQDGNSITEPDRGENGGHVAAGPDASGGKDGSTWISPLEAYKRHLESLPFVECKSIPPANAAAPLLSPVNRINPAAVGETGGIEQHLPEDGAAMMCVEGSATGAPAPRGAASPVAVCVLKASKKNPLLSLDSEPEVALPQIIKQVGSLKPEVLVMPKSLVPESLQLALLATSNPHCIVLPF,soluble
10,TSTMTDTVFSNSSNRWMYPSDRPLQSNDKEQLQAGWSVHPGGQPDRQRKQEELTDEEKEIINRVIARAEKMEEMEQERIGRLVDRLENMRKNVAGDGVNRCILCGEQLGMLGSACVVCEDCKKNVCTKCGVETNNRLHSVWLCKICIEQREVWKRSGAWFFKGFPKQVLPQPMPIKKTKPQQPVSEPAAPEQPAPEPKHPARAPARGDSEDRRGPGQKTGPDPASAPGRGNYGPPVRRASEARMSSSSRDSESWDHSGGAGDSSRSPAGLRRANSVQASRPAPGSVQSPAPPQPGQPGTPGGSRPGPGPAGRFPDQKPEVAPSDPGTTAPPREERTGGVGGYPAVGAREDRMSHPSGPYSQASAAAPQPAAARQPPPPEEEEEEANSYDSDEATTLGALEFSLLYDQDNSSLQCTIIKAKGLKPMDSNGLADPYVKLHLLPGASKSNKLRTKTLRNTRNPIWNETLVYHGITDEDMQRKTLRISVCDEDKFGHNEFIGETRFSLKKLKPNQRKNFNICLERVIPMKRAGTTGSARGMALYEEEQVERVGDIEERGKILVSLMYSTQQGGLIVGIIRCVHLAAMDANGYSDPFVKLWLKPDMGKKAKHKTQIKKKTLNPEFNEEFFYDIKHSDLAKKSLDISVWDYDIGKSNDYIGGCQLGISAKGERLKHWYECLKNKDKKIERWHQLQNENHVSSD,soluble
11,MAQHTYDEESVQELLGWAKKMLETKNYPTEKYQVNACTSIIDGKLYLESLISMISKNWENPTFHPTIEQLWEYREKWEGQKE,not soluble
12,MALILTFLGKSGVARTKIAIAAAKLLASQGKRVLLAGLAEPVLPLLLEQTLTPDPQQIAPNLEVVQFQSSVLLERNWEEVKKLEAQYLRTPIIKEVYGQELVVLPGMDSALALNAIREYDASGKYDAIVYDGTGDAFTLRMLGLPESLSWYVRRFRQLFVNSDLGKTIAESPLIQPLISSFFNVNWTADNFAQPTNQVNNFLDKGKEALADPKRVAAFLVTTADPLEVVSVRYLWGSAQQIGLTIGGVIQVSSQTEGDLSAEFTPLSVTVVPDVTKGDWQPLIDALPNFVEQAEQAPKPITIDTHNRQVRLFLPGFDKKQVKLTQYGPEVTVEAGDQRRNIFLPPALSGRPITGAKFQNNYLIISFLEHHHHHH,soluble
13,GPGSMSVKETTIALPLMVESVLDVDSGITATSAISVLDDRAVLIGTSEGSILLCAPVNESAHVLTPYSDTTLHCGAIYDLAVSSDHLVATAGHDAVSCVFPLHTFFRASGVRQCRRITGHTVPVVAVRFLSDGTSLVTLGADGRVLVAEVHSGHVLASLLCGFAATCLACSMDETQLFVGGRSLASIDLHHAMRPMSLQSVAAAASGPDPWASLSSAAAAPGAAASLRTPAWLRLYAWEEKSEATAGASRRQFRAPPHTFIRSLSVDSRDGALTATFARHAGGTSSVEVCGSARWAATGGRTASEATWAPQALQGVSAALRYPMSRDRSTGVATGKLRVRCRVKASARPSAKQTPAPPGSFASTAAALWNGRWYASPFELAGGTPRLTASHGLAETSVFTAEKSDQYGFPSAGPRTPAEELLIAQAQCDELQRECDALVFQIKSFLARKAPIR,not soluble
14,MGSDKIHHHHHHCELDRDPEGKDFQQPYTSFVQTKQNRDGLYALLRNTENPRMHFYQELQSDMYCTTITDGNSLAPFVNWDLGILNDHGRADEDEVSGIAGYYFVYNRLNQQANAFVNNTEAALQNQVYKNSTEIANAKSFLAEGKVLQALAIWRLMDRFSFHESVTEVNSGAKDLGVILLKEYNPGYIGPRATKAQCYDYILSRLSEAIEVLPENRESVLYVSRDYAYALRARIYLALGEYGKAAADAKMVVDKYPLIGAADASEFENIYRSDANNPEIIFRGFASATLGSFTATTLNGAAPAGKDIKYNPSAVPFQWVVDLYENEDFRKSVYIAKVVKKDKGYLVNKFLEDKAYRDVQDKPNLKVGARYFSVAEVYLILVESALQTGDTPTAEKYLKALSKARGAEVSVVNMEALQAERTRELIGEGSRLRDMVRWSIPNNHDAFETQPGLEGFANTTPLKAQAPVGFYAYTWEFPQRDRQTNPQLIKNWPI,not soluble
15,MFAIISVTGADHTGIIAAVATKCADLGVNINNVSQTIMDGYFTMILHVSFDDSATDIATIQESMADVEKDQNLVIRIQSQAIFDAMNII,not soluble
16,LTDIRKKAATTLEKQIKQELNQLYMEKAIFSVHFESDKTELTESGQDSVVFYMSTNPGEPLKPLAKIASGGELSRMMLALKTIFSRHQGITSIIFDEVDTGVSGRVGQAIAEKIYAVSVGSQVLCISHLPQVAAMANHHYYITKKVQNKRTTTSVTILKGEQKVEEISRMIAGIEVTELTKQHAKEMIQQAEKVKQTY,not soluble
17,MKFKQIILAGAVLATSTFTSLTNAQAETGFRDVPSDHWSYNAIMGLKEKNIVAGYGNGMFGFGDNITRGQVARLIYAYLKPADEHNAPNPFTDVKGHMFEKEILSLSKAGIMNGFGDGKFGPDNVLTREQLAVVLTKAFNFKATSTTTFKDVDKNYWATNAISALQENKIAAGTGDNLFEPKNIVTREQYAQFLYNAMNTVEVKPELTPFGIPSSMITNDFYYNSNNWKNASPVLKKSVSNEAQNLITKINKKYNEDYKYESASVSSMGLPESVQLRTSNPNLGRVYDLGQGQFFVQGENEHDFYIMFIIDNATVELAKSWITLINSDLNLDKEINDVIAMPSQKARGRDYHTYLDKGKYQIELGTSPQTKGYDSLFIGIKRK,not soluble
18,MTEDRNFDDIAHKFAKNIYGSDKGEIRQVIVWEDLEQLLSQLDTQKVPLHVLDAGGGLAQVSQKIARLGHRVTLCDLSSEMLQLAEQDIANNGLLEQYRFVHSPVQTIQAHLDAPVDLVLFHAVMEWLAEPKPALQNLLAQVRPGGMVSVMFYNYHGLVYKNAVCGNIPHVLEDMPHRKRFKLQPQKGLLPEEVYQWIEESSFEICGKSGIRCFSDYIGNMKNMGEYQYEDLVALERKFCRQEPYLSLGRYIHVWAKKKQ,not soluble
